Numbering of substitutions follows the chain as printed. Names and notes keep the numbering of the source.
B1: E670M, S693G: TP-DNAP1 variant (protein)
chain: MDYKDKALNDLRNVYADFDSLPLDFRQILIKDRATLLQKEDVEKKILERQEDAKKYAEYLKQSEIPERISLPNIKRHKGVSISFEETSEDMVLEPRPFIFDGLNIRCFRRETIFSLKNKILNMVKESSSFKNVSRQSVSFMYFKIFNKGKVIASTKSVNIYEDKIDERLEDLCNNFDDVLKKIIDVTYGYESLFVSETYSYVIFYAKSIYFPQPRCVNNWGNNIPNILTFDSFKLFTANKNNVSCIKQCSRFLWQKDFNTLEEMIEYKNGNICIVTPQLHINDVRDIKSFNDIRLYSESPIKTFSVIDNTITYLFYFKEHLGVIFNITKSRHDRRVTKFSPLSKFSDVKNITVCFDIESYFDPEKESNQVNIPFICCASIIYNKVIGNIVDFEGRDCVAQMIEYVVDICGELNISSVELIAHNGGGYDFHYILSSMYNPAAIKNILIRNNSFISFNFAHDGVKFSVKDSYSFLLCSLANASKAFLNEETFKKTDFPHHDLKTADDLYKVYKEWSSVNTEINHVVEKEKLLITSEHIVNFTKNDKSKTLIEWSKDYCRNDVLVLSKVWLEFKNAVEDIFNCELVDQTMTLAGLSYKLFQANMPFDVELRHPNKEDYFNMREALIGGRCISVNGIYKDVLCLDVKSLYPASMAFYDQPYGSFKRVSSRPKDMLGIYYVRVTPNRNNKSNFFPIRGHNKITYNNFEESTYIAWYTNVDIDIGLSEGHNIEYIPFDSYGNIGYSWSKKGKIFEKYIKDVLYKLKIKYEKQNNKVKRNVIKIIMNSLWGKFAQKWVNFEYFIKSEDDIDFESEEAYKIWDTDFMLIKKIKESTYSSKPIQNGVFTLSWARYHMKSIWDAGAKEGAECIYSDTDSIFVHKEHFKKNAKFMLNGLKVPIIGSEVGQLELECEFDKLLCAGKKQYMGFYTYFQDGKPCIKEKKRFKGIPSNYIIPELYAHLLSGADKEAKIQFLKFRREWGSVKGYIENKTVKAT
B2: N684D: TP-DNAP1 variant (protein)
chain: B1 chain with M670E, N684D, G693S
B3: N687G: TP-DNAP1 variant (protein)
chain: B1 chain with M670E, N687G, G693S
B4: R692I: TP-DNAP1 variant (protein)
chain: B1 chain with M670E, R692I, G693S
B5: Y675L: TP-DNAP1 variant (protein)
chain: B1 chain with M670E, Y675L, G693S
B6: T679A: TP-DNAP1 variant (protein)
chain: B1 chain with M670E, T679A, G693S
B7: R682P: TP-DNAP1 variant (protein)
chain: B1 chain with M670E, R682P, G693S
B8: R692F: TP-DNAP1 variant (protein)
chain: B1 chain with M670E, R692F, G693S
B9: N695H: TP-DNAP1 variant (protein)
chain: B1 chain with M670E, G693S, N695H
B10: N683T: TP-DNAP1 variant (protein)
chain: B1 chain with M670E, N683T, G693S
B11: R692V: TP-DNAP1 variant (protein)
chain: B1 chain with M670E, R692V, G693S
B12: R677Q: TP-DNAP1 variant (protein)
chain: B1 chain with M670E, R677Q, G693S
B13: H694T: TP-DNAP1 variant (protein)
chain: B1 chain with M670E, G693S, H694T
B14: H694I: TP-DNAP1 variant (protein)
chain: B1 chain with M670E, G693S, H694I
B15: N681F: TP-DNAP1 variant (protein)
chain: B1 chain with M670E, N681F, G693S
B16: R692K: TP-DNAP1 variant (protein)
chain: B1 chain with M670E, R692K, G693S
B17: R692F, T706E: TP-DNAP1 variant (protein)
chain: B1 chain with M670E, R692F, G693S, T706E
B18: N695Q: TP-DNAP1 variant (protein)
chain: B1 chain with M670E, G693S, N695Q
B19: R682D: TP-DNAP1 variant (protein)
chain: B1 chain with M670E, R682D, G693S
B20: E298R: TP-DNAP1 variant (protein)
chain: B1 chain with E298R, M670E, G693S
B21: N681Q, R692I: TP-DNAP1 variant (protein)
chain: B1 chain with M670E, N681Q, R692I, G693S
B22: R692W: TP-DNAP1 variant (protein)
chain: B1 chain with M670E, R692W, G693S
B23: L295Q: TP-DNAP1 variant (protein)
chain: B1 chain with L295Q, M670E, G693S
B24: R677M: TP-DNAP1 variant (protein)
chain: B1 chain with M670E, R677M, G693S
B25: Y675H: TP-DNAP1 variant (protein)
chain: B1 chain with M670E, Y675H, G693S
B26: N695F: TP-DNAP1 variant (protein)
chain: B1 chain with M670E, G693S, N695F
B27: T679Q: TP-DNAP1 variant (protein)
chain: B1 chain with M670E, T679Q, G693S
B28: R692C: TP-DNAP1 variant (protein)
chain: B1 chain with M670E, R692C, G693S
B29: S693R: TP-DNAP1 variant (protein)
chain: B1 chain with M670E, G693R
B30: N683A: TP-DNAP1 variant (protein)
chain: B1 chain with M670E, N683A, G693S
B31: Y296K: TP-DNAP1 variant (protein)
chain: B1 chain with Y296K, M670E, G693S
B32: I673V, E703D: TP-DNAP1 variant (protein)
chain: B1 chain with M670E, I673V, G693S, E703D
B33: R677L: TP-DNAP1 variant (protein)
chain: B1 chain with M670E, R677L, G693S
B34: T679E: TP-DNAP1 variant (protein)
chain: B1 chain with M670E, T679E, G693S
B35: R677S: TP-DNAP1 variant (protein)
chain: B1 chain with M670E, R677S, G693S
B36: N695E: TP-DNAP1 variant (protein)
chain: B1 chain with M670E, G693S, N695E
B37: S693Q: TP-DNAP1 variant (protein)
chain: B1 chain with M670E, G693Q
B38: T679R: TP-DNAP1 variant (protein)
chain: B1 chain with M670E, T679R, G693S
B39: N683H: TP-DNAP1 variant (protein)
chain: B1 chain with M670E, N683H, G693S

test system: p1; experiment: p1 copy number by p1-encoded mKate2 fluorescence; type: cell-based, S. cerevisiae; conditions: OR-Y24, measured in triplicate
Outline: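 Steps: transform TP-DNAP1 variant into OR-Y24; passage until w.t. p1 displaced; dilute 1:10,000 and grow to saturation in triplicate; measure p1-encoded mKate2 fluorescence; convert to copy number via linear qPCR-based calibration. Four high-copy variants were checked directly by qPCR.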

Molecule	Mean fold-increase over w.t. (p1 copy number)
B1	1.55 fold
B2	1.54 fold
B3	1.65 fold
B4	1.99 fold
B5	1.96 fold
B6	1.82 fold
B7	1.75 fold
B8	2.6 fold
B9	1.76 fold
B10	1.57 fold
B11	2.29 fold
B12	1.84 fold
B13	1.92 fold
B14	1.78 fold
B15	1.75 fold
B16	1.88 fold
B17	1.89 fold
B18	1.68 fold
B19	1.74 fold
B20	2.6 fold

Molecule	Mean fold-increase over w.t. (p1 copy number)
B21	1.74 fold
B22	1.97 fold
B23	2.48 fold
B24	1.97 fold
B25	2.14 fold
B26	1.44 fold
B27	1.71 fold
B28	1.69 fold
B29	2.09 fold
B30	1.93 fold
B31	2.28 fold
B32	1.88 fold
B33	1.68 fold
B34	1.7 fold
B35	1.87 fold
B36	2.34 fold
B37	2.22 fold
B38	1.73 fold
B39	1.68 fold

— patent publication US20230242902A1, “A HIGHLY ERROR-PRONE […] R[…] FOR TARGETED CONTINUOUS EVOLUTION IN VIVO” (The Regents of the University of California, priority 2017, published 2023)
